# Values of other authors in PMC5934386.
# Read-outs that look alike come from different tables or passages of the source.
# Legend:
# Ubiquitin (Homo sapiens) [1] = biological target: Ubiquitin (Homo sapiens) (UniProt P0CG47); assay: NMR
# Ubiquitin (Homo sapiens) [2] = biological target: Ubiquitin (Homo sapiens) (UniProt P0CG47)
# Chain of E2-25K UBA (P61086 157-200): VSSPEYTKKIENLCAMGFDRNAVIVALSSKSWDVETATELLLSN
# Chain of yeast E2-25K (P21734 whole entry): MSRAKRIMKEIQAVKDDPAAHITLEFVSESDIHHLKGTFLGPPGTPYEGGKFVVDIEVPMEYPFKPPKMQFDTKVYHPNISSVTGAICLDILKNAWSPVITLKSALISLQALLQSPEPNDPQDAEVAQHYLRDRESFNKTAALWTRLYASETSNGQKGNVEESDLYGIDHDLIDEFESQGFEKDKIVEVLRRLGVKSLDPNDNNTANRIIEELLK
Kd (Ubiquitin (Homo sapiens) [1]),Kd (Ubiquitin (Homo sapiens) [2]),Substance
228 µM,,yeast E2-25K (from UniProt P21734)
,1200 µM,E2-25K UBA (from UniProt P61086)
